Source: publication PMC11480449, “Adaptive laboratory evolution recruits the promiscuity of succinate semialdehyde dehydrogenase to repair different metabolic deficiencies” (Nature Communications, 2024)
Changes are numbered by the printed parent chain. Names may count otherwise.

Legend:
[1] = molecular target: T1, Sad (NAD(P)+-dependent succinate semialdehyde dehydrogenase, SSADH) (Escherichia coli, UniProt P76149, Q262R); experiment: X-ray crystallography; assay type: binding; details: 5 mM NAD+, 1 mM TCEP
T1 construct: dimeric on size exclusion
T1 sequence (P76149 whole entry Q262R): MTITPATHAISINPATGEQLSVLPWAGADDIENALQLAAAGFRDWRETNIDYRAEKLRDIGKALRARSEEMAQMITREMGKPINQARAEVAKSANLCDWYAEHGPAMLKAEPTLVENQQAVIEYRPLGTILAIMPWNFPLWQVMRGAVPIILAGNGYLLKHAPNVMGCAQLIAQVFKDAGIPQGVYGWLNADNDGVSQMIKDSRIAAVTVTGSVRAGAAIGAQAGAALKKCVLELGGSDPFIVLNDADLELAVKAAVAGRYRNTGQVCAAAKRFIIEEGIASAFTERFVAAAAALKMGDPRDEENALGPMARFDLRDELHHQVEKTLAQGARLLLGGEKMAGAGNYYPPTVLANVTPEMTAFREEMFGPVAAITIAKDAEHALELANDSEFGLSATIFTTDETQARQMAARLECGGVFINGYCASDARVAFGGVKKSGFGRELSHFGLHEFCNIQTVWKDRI

[2] = molecular target: T2, Sad (NAD(P)+-dependent succinate semialdehyde dehydrogenase, SSADH) (Escherichia coli, UniProt P76149); experiment: X-ray crystallography; assay type: binding
T2 construct: dimeric on size exclusion

[3] = molecular target: T3, ThrA (bifunctional aspartokinase (AK)/homoserine dehydrogenase (HDH) 1) (Escherichia coli, UniProt P00561); experiment: aspartate kinase, PK/LDH-coupled, NADH at […] nm; assay type: biochemical; details: 4 mM ATP, 5 mM L-aspartate, 5 mM MgCl2, pH 8.0, 37 °C
T3 sequence (P00561 1-820): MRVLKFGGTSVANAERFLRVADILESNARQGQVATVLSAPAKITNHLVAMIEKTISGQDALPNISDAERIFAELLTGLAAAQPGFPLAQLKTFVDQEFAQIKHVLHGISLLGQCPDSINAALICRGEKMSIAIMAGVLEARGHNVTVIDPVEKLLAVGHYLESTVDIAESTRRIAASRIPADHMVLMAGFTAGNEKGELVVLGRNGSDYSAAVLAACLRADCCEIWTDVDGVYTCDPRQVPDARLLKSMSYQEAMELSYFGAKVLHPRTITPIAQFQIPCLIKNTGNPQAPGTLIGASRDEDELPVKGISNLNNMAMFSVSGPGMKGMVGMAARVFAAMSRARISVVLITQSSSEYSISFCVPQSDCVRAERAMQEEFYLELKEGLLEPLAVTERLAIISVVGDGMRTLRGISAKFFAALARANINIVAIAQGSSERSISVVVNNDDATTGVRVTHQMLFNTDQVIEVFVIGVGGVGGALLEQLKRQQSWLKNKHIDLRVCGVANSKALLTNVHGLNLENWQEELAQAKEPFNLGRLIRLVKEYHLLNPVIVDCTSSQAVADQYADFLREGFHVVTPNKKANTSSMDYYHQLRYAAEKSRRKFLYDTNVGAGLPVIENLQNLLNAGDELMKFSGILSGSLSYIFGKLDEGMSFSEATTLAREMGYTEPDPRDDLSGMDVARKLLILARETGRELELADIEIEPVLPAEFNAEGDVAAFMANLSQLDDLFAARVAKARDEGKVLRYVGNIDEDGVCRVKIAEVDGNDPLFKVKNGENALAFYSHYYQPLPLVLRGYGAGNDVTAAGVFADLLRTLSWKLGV

[4] = molecular target: T1, Sad (NAD(P)+-dependent succinate semialdehyde dehydrogenase, SSADH); experiment: NADH formation at […] nm, substrate-inhibition fit; assay type: biochemical; details: 1 mM NAD+, 75 mM HEPES pH 8.0, 37 °C
[5] = molecular target: T2, Sad (NAD(P)+-dependent succinate semialdehyde dehydrogenase, SSADH); experiment: NADH formation at […] nm, substrate-inhibition fit; assay type: biochemical; details: 1 mM NAD+, 75 mM HEPES pH 8.0, 37 °C
[6] = molecular target: T3, ThrA (bifunctional aspartokinase (AK)/homoserine dehydrogenase (HDH) 1); experiment: homoserine dehydrogenase, NADPH consumption at […] nm; assay type: biochemical; details: 0.2 mM NADPH, 1 mM substrate, 100 mM KCl, pH 8.0, 37 °C
purified protein [7] = substrate: O=CCCC(=O)O; experiment: purified protein; assay type: biochemical, Escherichia coli; details: 75 mM HEPES pH 8.0, 37 °C
purified protein [8] = substrate: O=C[C@H](O)COP(=O)(O)O; experiment: purified protein; assay type: biochemical, Escherichia coli; details: 1 mM NAD+, 75 mM HEPES pH 8.0, 37 °C
purified protein [9] = substrate: O=C[C@H](O)[C@H](O)COP(=O)(O)O; experiment: purified protein; assay type: biochemical, Escherichia coli; details: 1 mM NAD+, 75 mM HEPES pH 8.0, 37 °C
[10] = molecular target: the molecule itself; experiment: SEC; HiLoad 16/600 Superdex 200 pg, 20 mM HEPES-KOH, 50 mM KCl, pH 7.5; preparative step after affinity purification, before crystallisation

## NC(=O)c1ccc[n+]([C@@H]2O[C@H](COP(=O)(O)OP(=O)(O)OC[C@H]3O[C@@H](n4cnc5c(N)ncnc54)[C@H](O)[C@@H]3O)[C@@H](O)[C@H]2O)c1 [NAD^+]
[1]
  X-ray crystallography: crystal structures of both Sad WT and Q262R variants with bound NAD^+
[2]; 5 mM NAD+
  X-ray crystallography: crystal structures of both Sad WT and Q262R variants with bound NAD^+

## N[C@@H](CC(=O)O)C(=O)O [L-aspartate]
[3]
  aspartate kinase, PK/LDH-coupled, NADH at 340 nm: Aspartate kinase activities of ThrA variants were determined

## O=CCCC(=O)O [succinate semialdehyde]
[4]
  App. Ki: 500 ± 100 µM
[2]; covalent, bound to C268, NAD+ present, crystal soaked with 5 mM SSA
  X-ray crystallography: the latter is covalently bound to C268
[5]
  App. Ki: 300 ± 100 µM

## O=C[C@H](O)[C@H](O)COP(=O)(O)O [erythrose 4-phosphate]
[4]
  App. Ki: 7400 ± 3300 µM

## O=C[C@H](O)COP(=O)(O)O [glyceraldehyde 3-phosphate]
[4]
  App. Ki: 1400 ± 300 µM

## N[C@@H](CC=O)C(=O)O [L-aspartic 4-semialdehyde]
[6]
  homoserine dehydrogenase, NADPH consumption at 340 nm: Homoserine dehydrogenase activities of ThrA variants were determined

B1: Sad (NAD(P)+-dependent succinate semialdehyde dehydrogenase, SSADH) (Escherichia coli K-12) (protein)
chain: MTITPATHAISINPATGEQLSVLPWAGADDIENALQLAAAGFRDWRETNIDYRAEKLRDIGKALRARSEEMAQMITREMGKPINQARAEVAKSANLCDWYAEHGPAMLKAEPTLVENQQAVIEYRPLGTILAIMPWNFPLWQVMRGAVPIILAGNGYLLKHAPNVMGCAQLIAQVFKDAGIPQGVYGWLNADNDGVSQMIKDSRIAAVTVTGSVRAGAAIGAQAGAALKKCVLELGGSDPFIVLNDADLELAVKAAVAGRYQNTGQVCAAAKRFIIEEGIASAFTERFVAAAAALKMGDPRDEENALGPMARFDLRDELHHQVEKTLAQGARLLLGGEKMAGAGNYYPPTVLANVTPEMTAFREEMFGPVAAITIAKDAEHALELANDSEFGLSATIFTTDETQARQMAARLECGGVFINGYCASDARVAFGGVKKSGFGRELSHFGLHEFCNIQTVWKDRI
notes: dimeric on size exclusion
Purified protein [7]; 1 mM NAD+
  Km: 11 ± 1 µM
  kcat: 85 ± 3 s⁻¹
  kcat/Km: 7.4e+06 M⁻¹ s⁻¹
Purified protein [8]
  Km: 1,106 ± 92 μM
  kcat: 3.1 ± 0.2 s⁻¹
  kcat/Km: 2800 M⁻¹ s⁻¹
Purified protein [9]
  Km: 2,102 ± 328 μM
  kcat: 1.1 ± 0.1 s⁻¹
  kcat/Km: 530 M⁻¹ s⁻¹

B2: Sad (NAD(P)+-dependent succinate semialdehyde dehydrogenase, SSADH) (Escherichia coli K-12; Q262R) (protein)
chain: B1 chain with Q262R
notes: dimeric on size exclusion
Purified protein [7]; 1 mM NAD+
  Km: 5 ± 1 µM
  kcat: 87 ± 4 s⁻¹
  kcat/Km: 1.9e+07 M⁻¹ s⁻¹
Purified protein [8]
  Km: 67 ± 9 µM
  kcat: 19 ± 1 s⁻¹
  kcat/Km: 280000 M⁻¹ s⁻¹
Purified protein [9]
  Km: 28 ± 4 µM
  kcat: 3 ± 0.1 s⁻¹
  kcat/Km: 110000 M⁻¹ s⁻¹

B3: GabD (NADP+-dependent SSADH) (Escherichia coli K-12) (protein)
chain: MKLNDSNLFRQQALINGEWLDANNGEAIDVTNPANGDKLGSVPKMGADETRAAIDAANRALPAWRALTAKERATILRNWFNLMMEHQDDLARLMTLEQGKPLAEAKGEISYAASFIEWFAEEGKRIYGDTIPGHQADKRLIVIKQPIGVTAAITPWNFPAAMITRKAGPALAAGCTMVLKPASQTPFSALALAELAIRAGVPAGVFNVVTGSAGAVGNELTSNPLVRKLSFTGSTEIGRQLMEQCAKDIKKVSLELGGNAPFIVFDDADLDKAVEGALASKFRNAGQTCVCANRLYVQDGVYDRFAEKLQQAVSKLHIGDGLDNGVTIGPLIDEKAVAKVEEHIADALEKGARVVCGGKAHERGGNFFQPTILVDVPANAKVSKEETFGPLAPLFRFKDEADVIAQANDTEFGLAAYFYARDLSRVFRVGEALEYGIVGINTGIISNEVAPFGGIKASGLGREGSKYGIEDYLEIKYMCIGL
Purified protein [7]; 1 mM NADP+
  Km: 13 ± 1 µM
  kcat: 132 ± 2 s⁻¹
  kcat/Km: 1e+07 M⁻¹ s⁻¹

B4: NAD(P)+-dependent succinate semialdehyde dehydrogenase of Escherichia coli (Sad), wild type (enzyme)
chain: B1 chain
notes: Succinate semialdehyde dehydrogenase Sad, E. coli; also called Sad WT; SSADH; source: E. coli BL21(DE3), purified (HisTrap, Superdex 200)
[10]
  binding result: binds

B5: Succinate semialdehyde dehydrogenase Sad, Q262R variant (enzyme, Escherichia coli)
chain: B1 chain with Q262R
notes: Succinate semialdehyde dehydrogenase Sad, E. coli, with Q262R (arose in adaptive laboratory evolution); also called Q262R mutant; source: E. coli BL21(DE3), purified (HisTrap, Superdex 200)
[10]
  binding result: binds
